Results reported in IntAct's records for PubMed 22751141.

Target: GATA3, P23771-2
Sequence (P23771 other isoform, or with tags, fused parts or gaps): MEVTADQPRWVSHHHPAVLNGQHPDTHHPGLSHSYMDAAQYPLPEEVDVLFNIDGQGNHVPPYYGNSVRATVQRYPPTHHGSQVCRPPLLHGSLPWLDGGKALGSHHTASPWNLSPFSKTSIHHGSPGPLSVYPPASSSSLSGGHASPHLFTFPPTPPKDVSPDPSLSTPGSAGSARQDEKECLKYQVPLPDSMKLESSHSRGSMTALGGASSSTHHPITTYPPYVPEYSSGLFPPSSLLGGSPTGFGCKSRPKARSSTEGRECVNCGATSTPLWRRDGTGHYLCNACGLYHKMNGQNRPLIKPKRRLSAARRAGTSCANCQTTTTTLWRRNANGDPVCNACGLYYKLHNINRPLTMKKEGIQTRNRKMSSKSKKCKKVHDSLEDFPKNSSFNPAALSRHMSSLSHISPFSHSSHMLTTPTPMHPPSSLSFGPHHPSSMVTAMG

Substance	effect of a mutation on the interaction
Transcription factor SOX-4 (Mus musculus), Q06831 F66A;M67A	decreasing interaction
Transcription factor SOX-4 (Mus musculus), Q06831 R61A;P62A	decreasing interaction
